# Test results from the RNAGym collection of RNA variant scans (doi:10.1073/pnas.2313332121).
# Fewer inactive variants are shown than the library holds.
# B1: TPR 5TU (parent)
# chain: GGAUCUUCUCGAUCUAACAAAAAAGACAAAUCUGCCACAAAGCUUGAGAGCAUCUUCGGAUGCAGAGGCGGCAGCCUUCGGUGGCGCGAUAGCGCCAACGUUCUCAACUAUGACACGCAAAACGCGUGCUCCGUUGAAUGGAGUUUAUCAUG
# Variants of: B1
# Test: polymerase ribozyme fitness, log enrichment relative to wild type (log ratio); higher = more active; in vitro selection for triplet polymerase activity
# Method in brief: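 To select mutant libraries of each subunit of a heterodimeric triplet polymerase ribozyme, built by PCR and transcribed, each was annealed with a biotinylated primer, partner subunit and triplets, then incubated frozen at −7 °C. Extended constructs were gel-excised, captured on streptavidin beads and amplified by RT-PCR, in one round carried out in triplicate. Illumina sequencing of input and output libraries kept genotypes with ≥10 input reads and ≥1 read per output. Fitness is the base-2 logarithm of genotype enrichment relative to wild-type enrichment, from inverse-variance-weighted replicate averages.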
row,Variant,polymerase ribozyme fitness (log ratio)
1,GGAUCUUCUCGAUCUAACAAAAAAGACAAAUCUGCCACAAAGCUUGAGAGCAUCUUCGGAUGCAGAGGCGGCAGCCUUCGGUGGCGCGAUAGCGCCAACGCGCUCGACUAUGACACGCAAAACGCGUGCUCCGUUGAAUGGAGUUUAUCAUG [U101C U102G A106G],-1.84
2,GGAUCUUCUCGAUCUAACAAAAAAGACAAAUCUGCCACAAAGCUUGAGAGCAUCUUCGGAUGCAGAGGCGGCAGCCUUCGGUGGCGCGAUAGCGCCAACGUUCUGAACUAUGACAUGCAAAACGCGUGCUCCGUUGAAUGGAGUAUAUCAUG [C105G C116U U145A],-0.747
3,GGAUCUUCUCGAUCUAACAAAAAAGACAAAUCUGCCACAAAGCUUGAGAGCAUCUUCGGAUGCAGAGGCGGCAGCCUUCGGUGGCGCGAUAGCGCCAACUUUCUCAACUAUGACACGCAAAACGGGUGCUCCGUUGAAUGGAGUUUAUCAUG [G100U C125G],-4.05
4,GGAUCUUCUCGAUCUAACAAAAAAGACAAAUCUGCCACAAAGCUUGAGAGCAUCUUCGGAUGCAGAGGCGGCAGCCUUCGGUGGCGCGAUAGCGCCAACGUGCUCAACUAUGACACGCAAGACGCGUGCUCCGUUGAAUGGAGUUUAUCAUG [U102G A121G],-2.33
5,GGAUCUUCUCGAUCUAACAAAAAAGACAAAUCUGCCACAAAGCUUGAGAGCAUCUUCGGAUGCAGAGGCGGCAGCCUUCGGUGGCGCGAUAGCGCCAACGUUCUAAACUAUGACACGCAAAACGCGUGCUCCGUUGAAUGGAGUUUAUCCUG [C105A A150C],-3.93
6,GGAUCUUCUCGAUCUAACAAAAAAGACAAAUCUGCCACAAAGCUUGAGAGCAUCUUCGGAUGCAGAGGCGGCAGCCUUCGGUGGCGCGAUAGCGCCAACGGUCUCAACUAUGACACGCAAAACGCGUGCUCCGUUGAAUGGAGGUUAUCAUG [U101G U144G],-0.737
7,GGAUCUUCUCGAUCUAACAAAAAAGACAAAUCUGCCACAAAGCUUGAGAGCAUCUUCGGAUGCAGAGGCGGCAGCCUUCGGUGGCGCGAUAGCGCCAACGGUCUCAACUAUGACACGCAAAACGCGUGCUCCGUUGAAUGGAGCUUAUCAUG [U101G U144C],-1.9
8,GGAUCUUCUCGAUCUAACAAAAAAGACAAAUCUGCCACAAAGCUUGAGAGCAUCUUCGGAUGCAGAGGCGGCAGCCUUCGGUGGCGCGAUAGCGCCAACGUUGUCAACUAUGACACGCAAAACGCGUGCUCCGUUGAAUGGAGUCUAUCAUG [C103G U145C],-1.74
9,GGAUCUUCUCGAUCUAACAAAAAAGACAAAUCUGCCACAAAGCUUGAGAGCAUCUUCGGAUGCAGAGGCGGCAGCCUUCGGUGGCGCGAUAGCGCCAACGCUCUCGACUAUGACACGCAAAACGCGUGCUCCGUUGAAUGGAGUUUAUCAUG [U101C A106G],0.00894
10,GGAUCUUCUCGAUCUAACAAAAAAGACAAAUCUGCCACAAAGCUUGAGAGCAUCUUCGGAUGCAGAGGCGGCAGCCUUCGGUGGCGCGAUAGCGCCAACGUUAUCGACUAUGACACGCAAAACGCGUGCUCCGUUGAAUGGAGUUUAUCAUG [C103A A106G],-0.927
11,GGAUCUUCUCGAUCUAACAAAAAAGACAAAUCUGCCACAAAGCUUGAGAGCAUCUUCGGAUGCAGAGGCGGCAGCCUUCGGUGGCGCGAUAGCGCCAACGUUAUCAACUAUGACACGCAAAACGCGUGCUCCGUUGAACGGAGUUUAUCAUG [C103A U139C],-3.89
12,GGAUCUUCUCGAUCUAACAAAAAAGACAAAUCUGCCACAAAGCUUGAGAGCAUCUUCGGAUGCAGAGGCGGCAGCCUUCGGUGGCGCGAUAGCGCCAACGUUAUCAACUAUGACACGCAAAACGCGUGCUCCGUUGAAUGUAGUUUAUCAUG [C103A G141U],-3.08
13,GGAUCUUCUCGAUCUAACAAAAAAGACAAAUCUGCCACAAAGCUUGAGAGCAUCUUCGGAUGCAGAGGCGGCAGCCUUCGGUGGCGCGAUAGCGCCAACGUGCUCAACUAUGACAUGCAAAACGCGUGCUCCGUUGAAUGGAGUUUAUCAUG [U102G C116U],-2.66
14,GGAUCUUCUCGAUCUAACAAAAAAGACAAAUCUGCCACAAAGCUUGAGAGCAUCUUCGGAUGCAGAGGCGGCAGCCUUCGGUGGCGCGAUAGCGCCAACGUUCUGAACUAUGACACGCAAAACGCGUGCUCAGUUGAAUGGAGUUUAUCAUG [C105G C132A],-3.96
15,GGAUCUUCUCGAUCUAACAAAAAAGACAAAUCUGCCACAAAGCUUGAGAGCAUCUUCGGAUGCAGAGGCGGCAGCCUUCGGUGGCGCGAUAGCGCCAACGUUCGCAACUAUGACACGCAAAACGCGUGCUCCGUUGAAUGGAGUGUAUCAUG [U104G U145G],-0.945
16,GGAUCUUCUCGAUCUAACAAAAAAGACAAAUCUGCCACAAAGCUUGAGAGCAUCUUCGGAUGCAGAGGCGGCAGCCUUCGGUGGCGCGAUAGCGCCAACGUUUUCAACUAUGACACGCAAAACGCGUGCUCCGGUGAAUGCAGUUUAUCAUG [C103U U134G G141C],-4.14
17,GGAUCUUCUCGAUCUAACAAAAAAGACAAAUCUGCCACAAAGCUUGAGAGCAUCUUCGGAUGCAGAGGCGGCAGCCUUCGGUGGCGCGAUAGCGCCAACGUUCUUAACUAUGACAUGCAAAACGCGUGCUCCUUUGAAUGGCGUUUAUUAUG [C105U C116U G133U A142C C149U],-4.08
18,GGAUCUUCUCGAUCUAACAAAAAAGACAAAUCUGCCACAAAGCUUGAGAGCAUCUUCGGAUGCAGAGGCGGCAGCCUUCGGUGGCGCGAUAGCGCCAACGUUCGCAACUAUGACACGGAAAACGCGUGCUCCGUUGAAUGGAGUUUAUCAUG [U104G C118G],-1.89
19,GGAUCUUCUCGAUCUAACAAAAAAGACAAAUCUGCCACAAAGCUUGAGAGCAUCUUCGGAUGCAGAGGCGGCAGCCUUCGGUGGCGCGAUAGCGCCAACGUUUUCAACUAUGACACGCAAAACGCGUACUCCGUUGAAUGGAGUUUAUCAUG [C103U G128A],-3.93

row,Variant,polymerase ribozyme fitness (log ratio)
1,GGAUCUUCUCGAUCUAACAAAAAAGACAAAUCUGCCACAAAGCUUGAGAGCAUCUUCGGAUGCAGAGGCGGCAGCCUUCGGUGGCGCGAUAGCGCCAACGUUCGCAACUAUGACACGCAGAACGCGUGCUCCGUUGAAUGGAGUUUAUCAUG [U104G A120G],-0.0889
2,GGAUCUUCUCGAUCUAACAAAAAAGACAAAUCUGCCACAAAGCUUGAGAGCAUCUUCGGAUGCAGAGGCGGCAGCCUUCGGUGGCGCGAUAGCGCCAACUUUCUCAACUAUGACACGCAAAACGCGUGCUCCGUUGAAUGGAGUUUAUCAAG [G100U U151A],≤ -4.2
3,GGAUCUUCUCGAUCUAACAAAAAAGACAAAUCUGCCACAAAGCUUGAGAGCAUCUUCGGAUGCAGAGGCGGCAGCCUUCGGUGGCGCGAUAGCGCCAACGUUCUAAACUAUGACACGCAGAAAGCGUGCUCUGUUCAAUGGAGUUUAUCAUG [C105A A120G C123A C132U G136C],-3.32
4,GGAUCUUCUCGAUCUAACAAAAAAGACAAAUCUGCCACAAAGCUUGAGAGCAUCUUCGGAUGCAGAGGCGGCAGCCUUCGGUGGCGCGAUAGCGCCAACGGUCUCAACUAUGACACGCAAAACGCUUGCUCCGUUGAAUGGAGUUUAUCAUG [U101G G126U],0.138
5,GGAUCUUCUCGAUCUAACAAAAAAGACAAAUCUGCCACAAAGCUUGAGAGCAUCUUCGGAUGCAGAGGCGGCAGCCUUCGGUGGCGCGAUAGCGCCAACGUGCUCAACUAGGACACGCAAAACGCGUGCUCCGUUGAAUGGAGUUUAUCAUG [U102G U111G],≤ -4.2
6,GGAUCUUCUCGAUCUAACAAAAAAGACAAAUCUGCCACAAAGCUUGAGAGCAUCUUCGGAUGCAGAGGCGGCAGCCUUCGGUGGCGCGAUAGCGCCAACGUACUCAACUAUGACACGCCAAACGCGUGCUCCGUUGAAUGCAGUUUAUCAUG [U102A A119C G141C],-2.4
7,GGAUCUUCUCGAUCUAACAAAAAAGACAAAUCUGCCACAAAGCUUGAGAGCAUCUUCGGAUGCAGAGGCGGCAGCCUUCGGUGGCGCGAUAGCGCCAACGGUCUCAACUAUGACACGCAAAACGCGUGCUCCGUUGGAUGGAGUUUAUCAUG [U101G A137G],-1.31
8,GGAUCUUCUCGAUCUAACAAAAAAGACAAAUCUGCCACAAAGCUUGAGAGCAUCUUCGGAUGCAGAGGCGGCAGCCUUCGGUGGCGCGAUAGCGCCAACGUUCUUAACUAUGACACGCAAAACACGUGCUCCGUUGAAUGGAGUUUAUCAUG [C105U G124A],0.519
9,GGAUCUUCUCGAUCUAACAAAAAAGACAAAUCUGCCACAAAGCUUGAGAGCAUCUUCGGAUGCAGAGGCGGCAGCCUUCGGUGGCGCGAUAGCGCCAACGGUCUCAACUAUGACACGCAAAACGCGUGCUCCGUUGAAUGGAGUGUAUCAUG [U101G U145G],-0.0241
10,GGAUCUUCUCGAUCUAACAAAAAAGACAAAUCUGCCACAAAGCUUGAGAGCAUCUUCGGAUGCAGAGGCGGCAGCCUUCGGUGGCGCGAUAGCGCCAACGUACUCAACUAUGAAACGCAAAACGCGUGCUCCGUUGAAUGGAGUUUAUCAUG [U102A C114A],-4
11,GGAUCUUCUCGAUCUAACAAAAAAGACAAAUCUGCCACAAAGCUUGAGAGCAUCUUCGGAUGCAGAGGCGGCAGCCUUCGGUGGCGCGAUAGCGCCAACGUGCUCAACUAUGACACGCAAAACGCGUGCUCCGUUGAAUGGAGCUUAUCAUG [U102G U144C],-3.06
12,GGAUCUUCUCGAUCUAACAAAAAAGACAAAUCUGCCACAAAGCUUGAGAGCAUCUUCGGAUGCAGAGGCGGCAGCCUUCGGUGGCGCGAUAGCGCCAACGUUCACAACUAUGACACGCAAAACGAGUGCUCCGUUGAAUGGAGUUUAUCAUG [U104A C125A],-0.813
13,GGAUCUUCUCGAUCUAACAAAAAAGACAAAUCUGCCACAAAGCUUGAGAGCAUCUUCGGAUGCAGAGGCGGCAGCCUUCGGUGGCGCGAUAGCGCCAACGAUCUCAACUAUGACACGCAAAACGCGUGCUUCGUUGAAUGGAGUUUAUCAUG [U101A C131U],0.454
14,GGAUCUUCUCGAUCUAACAAAAAAGACAAAUCUGCCACAAAGCUUGAGAGCAUCUUCGGAUGCAGAGGCGGCAGCCUUCGGUGGCGCGAUAGCGCCAACGUUAUCAACUAUGACACGCAUAACAUGUGCUCCGUUGAAUGGAGUUUAUCAUG [C103A A120U G124A C125U],-2.03
15,GGAUCUUCUCGAUCUAACAAAAAAGACAAAUCUGCCACAAAGCUUGAGAGCAUCUUCGGAUGCAGAGGCGGCAGCCUUCGGUGGCGCGAUAGCGCCAACGUGCUCAACUAUGACACGCAAAACGCGUGCUCCGUUGAAUGGAGUUGAUCAUG [U102G U146G],-4.17
16,GGAUCUUCUCGAUCUAACAAAAAAGACAAAUCUGCCACAAAGCUUGAGAGCAUCUUCGGAUGCAGAGGCGGCAGCCUUCGGUGGCGCGAUAGCGCCAACGUUCUAGACUAUGACACGCAAAACGCGUGCUCCGUUGAAUGGAGUUUAUCAUG [C105A A106G],-0.311
17,GGAUCUUCUCGAUCUAACAAAAAAGACAAAUCUGCCACAAAGCUUGAGAGCAUCUUCGGAUGCAGAGGCGGCAGCCUUCGGUGGCGCGAUAGCGCCAACGUUCUUAACUAUGUCACGCAAAACGCGUGCUCCGUUGAAUGGAGUUUAUCAUG [C105U A113U],-1.37
18,GGAUCUUCUCGAUCUAACAAAAAAGACAAAUCUGCCACAAAGCUUGAGAGCAUCUUCGGAUGCAGAGGCGGCAGCCUUCGGUGGCGCGAUAGCGCCAACGUUAUCAACUAUGACACGCAAAACGCGUGCUCCGUUGAAUGGUGUUUAUCAUG [C103A A142U],-3.79
19,GGAUCUUCUCGAUCUAACAAAAAAGACAAAUCUGCCACAAAGCUUGAGAGCAUCUUCGGAUGCAGAGGCGGCAGCCUUCGGUGGCGCGAUAGCGCCAACGUGCUCAACUAUGACACGCAAAACGCGUGCUCCGUUGAAUGUAGUUUAUCAUG [U102G G141U],-1.98
